Measurements published in patent publication US20180327746, “Alpha-AMYLASE-BINDING NUCLEIC ACID MOLECULE AND USE THEREOF” (NEC Solution Innovators, Ltd., published 2018).

Tests used:
[1] = target: T1, alpha-amylase (Homo sapiens, UniProt P0DUB6 P0DUB6:16-511); experiment: SPR; SPR buffer with 1 mM MgCl2, pH 7.4; Chi2 31.8; text says all Kd 17 nM or less; conditions: tags: none stated; commercial human alpha-amylase, Lee Biosolutions; label: 3' poly(dA)20 captured on biotin-poly(dT)20
T1 sequence: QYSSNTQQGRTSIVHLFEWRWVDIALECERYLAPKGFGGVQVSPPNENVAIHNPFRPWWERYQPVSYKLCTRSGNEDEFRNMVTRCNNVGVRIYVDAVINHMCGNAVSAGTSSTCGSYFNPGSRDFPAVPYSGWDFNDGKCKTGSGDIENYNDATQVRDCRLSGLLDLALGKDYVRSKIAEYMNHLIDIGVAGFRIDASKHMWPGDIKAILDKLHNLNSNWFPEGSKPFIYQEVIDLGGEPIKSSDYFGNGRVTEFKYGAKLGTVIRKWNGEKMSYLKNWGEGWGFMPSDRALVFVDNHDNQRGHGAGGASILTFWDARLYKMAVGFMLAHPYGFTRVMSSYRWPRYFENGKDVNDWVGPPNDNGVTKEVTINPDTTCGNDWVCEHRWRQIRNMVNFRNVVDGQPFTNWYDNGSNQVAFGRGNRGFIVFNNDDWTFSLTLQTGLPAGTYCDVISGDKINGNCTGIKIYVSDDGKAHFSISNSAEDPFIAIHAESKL
Experimental: Then, the poly(dA)-added aptamer at 200 nmol/L was injected to the flow cell of the chip using an SPR buffer at a flow rate of 25 μL/min for 80 seconds, and the binding was allowed to proceed until the signal intensity reached about 800 RU. […] Subsequently, the specimen was injected using the SPR buffer at a flow rate of 50 μL/min for 120 seconds, followed by washing performed by flowing the SPR buffer under the same conditions for 300 seconds. The concentration of the human α-amylase in the specimen was set to 400 nmol/L. Signal intensity measurement was performed concurrently with the injection of the specimen and the washing with the SPR buffer. With 0 seconds being the start of the injection, the mean value of signal intensities from 115 seconds to 125 seconds was determined. […] Then, the value (B/A) obtained by dividing the protein binding measured value (B) by the aptamer immobilization measured value (A) was determined as a relative value (Relative Unit).
(§1) The binding ability of the aptamers was analyzed by SPR in the same manner as in Example 1, except that the concentration of the α-amylase in the specimen was set to a plurality of values. The concentration was set to 20 nmol/L, 10 nmol/L, 5 nmol/L, 2.5 nmol/L, and 1.25 nmol/L. Then, from the results obtained by the SPR analysis, the kinetic parameter and the chi-squared value were calculated.

[2] = target: T1, alpha-amylase; experiment: SPR; SPR buffer with 1 mM MgCl2, pH 7.4; Chi2 10.58; conditions: tags: none stated; commercial human alpha-amylase, Lee Biosolutions; label: 3' poly(dA)20 captured on biotin-poly(dT)20
Experimental: (§2) Biotinylated poly(dT) at 5 μmol/L was injected to a flow cell of the sensor chip using ultrapure water (DDW), and the binding was allowed to proceed until the signal intensity (RU: Resonance Unit) reached about 900 RU. The biotinylated poly(dT) was prepared by biotinylating the 5′ end of 20-mer deoxythymidine. Then, the poly(dA)-added aptamer at 200 nmol/L was injected to the flow cell of the chip using an SPR buffer at a flow rate of 25 μL/min for 80 seconds, and the binding was allowed to proceed until the signal intensity reached about 800 RU. […] With 0 seconds being the start of the injection, the mean value of signal intensities from 115 seconds to 125 seconds was determined. […] Then, the value (B/A) obtained by dividing the protein binding measured value (B) by the aptamer immobilization measured value (A) was determined as a relative value (Relative Unit).
as §1

[3] = target: T1, alpha-amylase; experiment: capillary electrophoresis; 200 nM aptamer, 2 uM amylase, 40 mM HEPES pH 7.5, 1 mM MgCl2; conditions: tags: none stated; commercial human alpha-amylase, Lee Biosolutions; label: 5' TYE665
Experimental: (§3) Reaction solutions containing the labeled aptamer (SEQ ID NO: 1) were prepared. Each of the reaction solutions was subjected to CAE under the following conditions. The reaction solution was caused to migrate while separating the components therefrom, and the fluorescence at a maximum absorption wavelength (665 nm) of the fluorescent substance was measured. As the reaction solutions, the following four types of reaction solutions were used: a reaction solution 1 containing the labeled aptamer only; a reaction solution 2 containing the labeled aptamer and the α-amylase; a reaction solution 3 containing the labeled aptamer and the saliva; and a reaction solution 4 containing the labeled aptamer as the negative control and the saliva. In each of the reaction solutions, the concentration of the labeled aptamer was 200 nmol/L. In the reaction solution 2, the concentration of the α-amylase was 2 μmol/L. In the reaction solutions 3 and 4, the concentration of the saliva was 10%. The reminder of each of the reaction solutions was a buffer solution. The composition of the buffer solution was as follows: 40 mmol/L HEPES (pH 7.5), 125 mmol/L NaCl, 5 mmol/L KCl, and 1 mmol/L MgCl₂.

[4] = target: T2, chromogranin A (CgA) (Homo sapiens, UniProt P10645 P10645:19-457); experiment: capillary electrophoresis specificity control; conditions: tags: N-terminal His-tag; full length, Creative BioMart CHGA-26904TH; label: 5' TYE665
T2 sequence: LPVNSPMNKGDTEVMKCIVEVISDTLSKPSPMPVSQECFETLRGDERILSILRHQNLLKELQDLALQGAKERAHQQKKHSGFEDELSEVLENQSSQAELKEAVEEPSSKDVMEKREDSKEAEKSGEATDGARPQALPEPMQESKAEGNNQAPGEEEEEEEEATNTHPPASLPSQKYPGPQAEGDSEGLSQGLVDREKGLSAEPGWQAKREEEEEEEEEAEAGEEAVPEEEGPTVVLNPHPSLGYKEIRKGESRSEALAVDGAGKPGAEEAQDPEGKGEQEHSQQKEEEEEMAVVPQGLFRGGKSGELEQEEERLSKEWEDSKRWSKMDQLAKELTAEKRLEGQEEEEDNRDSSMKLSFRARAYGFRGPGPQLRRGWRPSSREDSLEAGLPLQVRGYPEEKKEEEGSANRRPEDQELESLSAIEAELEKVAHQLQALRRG
Experimental: as §3
Preparation of the reaction solution 2 and the binding ability analysis by CAE were carried out in the same manner as in the above item (3), except that the labeled aptamers (SEQ ID NOs: 1, 2, 3, and 19) were used. Further, in order to examine the specificity of the labeled aptamers to the α-amylase, the binding ability analysis by CAE was performed in the same manner as in the case where the above-described reaction solution 2 was used, except that, instead of the α-amylase, human chromogranin A (CgA, recombinant full length protein, Creative BioMart, #CHGA-26904TH) or human IgA (secretory, Biomedicals, LLC-Cappel Products, #55905), each having a His-tag fused at the N terminus were used.

[5] = target: T1, alpha-amylase; experiment: SPR; SPR buffer with 1 mM MgCl2, pH 7.4; Chi2 4.17; conditions: tags: none stated; commercial human alpha-amylase, Lee Biosolutions; label: 3' poly(dA)20 captured on biotin-poly(dT)20
Experimental: as §2, §1

[6] = target: T1, alpha-amylase; experiment: SPR; SPR buffer with 1 mM MgCl2, pH 7.4; Chi2 3.26; conditions: tags: none stated; commercial human alpha-amylase, Lee Biosolutions; label: 3' poly(dA)20 captured on biotin-poly(dT)20
Experimental: as §2, §1

[7] = target: T1, alpha-amylase; experiment: SPR; SPR buffer with 1 mM MgCl2, pH 7.4; Chi2 4.3; conditions: tags: none stated; commercial human alpha-amylase, Lee Biosolutions; label: 3' poly(dA)20 captured on biotin-poly(dT)20
Experimental: as §2, §1

[8] = target: T1, alpha-amylase; experiment: SPR; SPR buffer with 1 mM MgCl2, pH 7.4; Chi2 5.05; conditions: tags: none stated; commercial human alpha-amylase, Lee Biosolutions; label: 3' poly(dA)20 captured on biotin-poly(dT)20
Experimental: as §2, §1

[9] = target: T1, alpha-amylase; experiment: SPR; SPR buffer with 1 mM MgCl2, pH 7.4; Chi2 23.87; conditions: tags: none stated; commercial human alpha-amylase, Lee Biosolutions; label: 3' poly(dA)20 captured on biotin-poly(dT)20
Experimental: as §2, §1

[10] = target: T1, alpha-amylase; experiment: SPR; SPR buffer with 1 mM MgCl2, pH 7.4; Chi2 24.55; conditions: tags: none stated; commercial human alpha-amylase, Lee Biosolutions; label: 3' poly(dA)20 captured on biotin-poly(dT)20
Experimental: as §2, §1

[11] = target: T1, alpha-amylase; experiment: SPR; SPR buffer with 1 mM MgCl2, pH 7.4; Chi2 3.85; conditions: tags: none stated; commercial human alpha-amylase, Lee Biosolutions; label: 3' poly(dA)20 captured on biotin-poly(dT)20
Experimental: as §2, §1

B1: AML1243KR8m3 (ssDNA)
DNA: GGATACCTTAACGCCGCCTATTGCGAGGTGTGGCTAGTCGTTATAGGTCCACCGAGTTGCACCCGTCTCGAAATCAAAAAAAAAAAAAAAAAAAA
modifications: KS9 modified T (formula 1) at underlined T, i.e. T 3' of the 5' primer region
For B1, the Kd [1] was 19.9 nM.

B2: AML1243KR8m1_KS9-3_mini (ssDNA)
DNA: GTGAACGACGTGAATAGTGTTTGTGGGTCCGGAGTTAAAAAAAAAAAAAAAAAAAA
modifications: KS9 modified T (formula 1) at all T
For B2, the Kd [2] was 0.607 nM.

B3: TYE665-AML1243KR8m1 (ssDNA)
DNA: GGATACCTTAACGCCGCCTATTGTGAACGACGTGAATAGTGTTTGTGGGTCCGGAGTTGCACCCGTCTCGAAATC
modifications: KS9 modified T (formula 1) at underlined T, i.e. T 3' of the 5' primer region
B3: binds [3]; no binding [4].

B4: AML1243KR8m1s65_FW_s20 (ssDNA)
DNA: TACCTTAACGCCGCCTATTGTGAACGACGTGAATAGTGTTTGTGGGTCCGGAGTTGCACCCGAAAAAAAAAAAAAAAAAAAA
modifications: KS9 modified T (formula 1) at underlined T, i.e. T 3' of the 5' primer region
With B4 the Kd [5] was 0.68 nM.

B5: AML1243KR8m1s58_FW_s20 (ssDNA)
DNA: TACCTTAACGCCGCCTATTGTGAACGACGTGAATAGTGTTTGTGGGTCCGGAGTTAAAAAAAAAAAAAAAAAAAA
modifications: KS9 modified T (formula 1) at underlined T, i.e. T 3' of the 5' primer region
With B5 the Kd [6] was 0.707 nM.

B6: AML1243KR8m1 (ssDNA)
DNA: GGATACCTTAACGCCGCCTATTGTGAACGACGTGAATAGTGTTTGTGGGTCCGGAGTTGCACCCGTCTCGAAATCAAAAAAAAAAAAAAAAAAAA
modifications: KS9 modified T (formula 1) at underlined T, i.e. T 3' of the 5' primer region
In the case of B6, the Kd [7] is reported as 0.805 nM.

B7: Amy_258KK10R8m2 (ssDNA)
DNA: GGTTACGCCCAGGACACATTTCATTGATGGCATACTAAGGGTCGAGGAATTCGTAAGCTCGGTCTCCTCGGATAATCAAAAAAAAAAAAAAAAAAAA
modifications: KK10 modified T (formula 2) at double-underlined T, i.e. T 3' of the 5' primer region
In the case of B7, the Kd [8] is reported as 2.3 nM.

B8: AML1243KR8m2 (ssDNA)
DNA: GGATACCTTAACGCCGCCTATTGCTATGAGTAGTGTTTGTAGGTCTGGCATGCGAGTTGCACCCGTCTCGAAATCAAAAAAAAAAAAAAAAAAAA
modifications: KS9 modified T (formula 1) at underlined T, i.e. T 3' of the 5' primer region
B8 gave a Kd [9] of 2.6 nM.

B9: AML1243KR8m2s49Fw_s15 (ssDNA)
DNA: TAACGCCGCCTATTGCTATGAGTAGTGTTTGTAGGTCTGGCAAAAAAAAAAAAAAAAAAAA
modifications: KS9 modified T (formula 1) at underlined T, i.e. T 3' of the 5' primer region
With B9 the Kd [10] was 2.66 nM.

B10: Amy_258KK10R8m1 (ssDNA)
DNA: GGTTACGCCCAGGACACATTTCAAAAGATGATGGCATACGTAAAGGGTCGAGGTAAGCTCGGTCTCCTCGGATAATCAAAAAAAAAAAAAAAAAAAA
modifications: KK10 modified T (formula 2) at double-underlined T, i.e. T 3' of the 5' primer region
With B10 the Kd [11] was 2.72 nM.
